B1: 374_D06 (antibody, V domains shown)
VH: EVQLLESGGGLVQPGGSLRLSCAASGFTFSSYSMNWVRQAPGKGLEWVSGINYNGGYTSYADSVKGRFTISRDNSKNTLYLQMNSLRAEDTAVYYCARGANWHDTALDYWGQGTLVTVSS
VL: DIQMTQSPSSLSASVGDRVTITCRASQSILSYVNWYQQKPGKAPKLVIYAATSRASGVPSRFSGSGSGTDFTLTISSLQPEDFATYYCQQSYDSPLTFGGGTKVEIK
notes: Group III
B2: 374_D07 (antibody, V domains shown)
VH: EVQLLESGGGLVQPGGSLRLSCAASGFTFDSYSMNWVRQAPGKGLEWVSGINYNSGYKSYADSVKGRFTISRDNSKNTLYLQMNSLRAEDTAVYYCARGANWHDTALDYWGQGTLVTVSS
VL: DIQMTQSPSSLSASVGDRVTITCRASQSIVSYLNWYQQKPGKAPKLVIYAATSLASGVPSRFSGSGSGTDFTLTISSLQPEDFATYYCQQSYNSPLTFGGGTKVEIK
notes: Group III
B3: 374_D10 (antibody, V domains shown)
VH: EVQLLESGGGLVQPGGSLRLSCAASGFTFSSYGMHWVRQAPGKGLEWVASINYNGGYTSYADSVKGRFTISRDNSKNTLYLQMNSLRAEDTAVYYCARGANWHDTHLDYWGQGTLVTVSS
VL: DIQMTQSPSSLSASVGDRVTITCRASQSILTYVNWYQQKPGKAPKLLIYAATSRASGVPSRFSGSGSGTDFTLTISSLQPEDFATYYCQQSYDNPLTFGGGTKVEIK
notes: Group III
B4: 374_E10 (antibody, V domains shown)
VH: EVQLLESGGGLVQPGGSLRLSCAASGFTFSSYSMNWVRQAPGKGLEWVSGINYNGGYKSYADSVKGRFTISRDNSKNTLYLQMNSLRAEDTAVYYCARGANWHDTALDYWGQGTLVTVSS
VL: DIQMTQSPSSLSASVGDRVTITCRASQSILSYLNWYQQKPGKAPKLLIYAATSRHSGVPSRFSGSGSGTDFTLTISSLQPEDFATYYCQQSYDSPLTFGGGTKVEIK
notes: Group III
B5: 374_E12 (antibody, V domains shown)
VH: EVQLLESGGGLVQPGGSLRLSCAASGFTFSSYSMNWVRQAPGKGLEWVSGINYNGGYKSYADSVKGRFTISRDNSKNTLYLQMNSLRAEDTAVYYCARGANWHDTALDYWGQGTLVTVSS
VL: DIQMTQSPSSLSASVGDRVTITCRASQSILSYLNWYQQKPGKAPKLVIYAATSRASGVPSRFSGSGSGTDFTLTISSLQPEDFATYYCQQSYDNPLTFGGGTKVEIK
notes: Group III
B6: 374_F06 (antibody, V domains shown)
VH: EVQLLESGGGLVQPGGSLRLSCAASGFTFSSYSMNWVRQAPGKGLEWVSGINYNGGYTSYADSVKGRFTISRDNSKNTLYLQMNSLRAEDTAVYYCARGANWHDTALDYWGQGTLVTVSS
VL: DIQMTQSPSSLSASVGDRVTITCRASQSIISYVNWYQQKPGKAPKLVIYAATSLHSGVPSRFSGSGSGTDFTLTISSLQPEDFATYYCQQSYSTPLTFGGGTKVEIK
notes: Group III
B7: 374_F07 (antibody, V domains shown)
VH: EVQLLESGGGLVQPGGSLRLSCAASGFTFDSYSMNWVRQAPGKGLEWVASINYNGGYTGYADSVKGRFTISRDNSKNTLYLQMNSLRAEDTAVYYCARGANWHDTHLDYWGQGTLVTVSS
VL: DIQMTQSPSSLSASVGDRVTITCRASQSILSYLNWYQQKPGKAPKLVIYAVTSLASGVPSRFSGSGSGTDFTLTISSLQPEDFATYYCQQSYESPLTFGGGTKVEIK
notes: Group III
B8: 374_F08 (antibody, V domains shown)
VH: EVQLLESGGGLVQPGGSLRLSCAASGFTFDSYSMNWVRQAPGKGLEWVSGINYNGGYKSYADSVKGRFTISRDNSKNTLYLQMNSLRAEDTAVYYCARGANWHDTALDYWGQGTLVTVSS
VL: DIQMTQSPSSLSASVGDRVTITCRASQSILTYVNWYQQKPGKAPKLVIYAVTSRASGVPSRFSGSGSGTDFTLTISSLQPEDFATYYCQQSYDTPLTFGGGTKVEIK
notes: Group III
B9: 374_G03 (antibody, V domains shown)
VH: EVQLLESGGGLVQPGGSLRLSCAASGFTFSDYSMNWVRQAPGKGLEWVSGINYNGGYTSYADSVKGRFTISRDNSKNTLYLQMNSLRAEDTAVYYCARGANWHDTALDYWGQGTLVTVSS
VL: DIQMTQSPSSLSASVGDRVTITCRASQSISSYLNWYQQKPGKAPKLVIYAATSRASGVPSRFSGSGSGTDFTLTISSLQPEDFATYYCQQSDDTPLTFGGGTKVEIK
notes: Group III
B10: 374_G08 (antibody, V domains shown)
VH: EVQLLESGGGLVQPGGSLRLSCAASGFTFDSYSMNWVRQAPGKGLEWVSGINYNGGYTSYADSVKGRFTISRDNSKNTLYLQMNSLRAEDTAVYYCARGANWHDTALDYWGQGTLVTVSS
VL: DIQMTQSPSSLSASVGDRVTITCRASQSILTYVNWYQQKPGKAPKLVIYAATSRASGVPSRFSGSGSGTDFTLTISSLQPEDFATYYCQQSYDSPLTFGGGTKVEIK
notes: Group III
B11: 374_G09 (antibody, V domains shown)
VH: EVQLLESGGGLVQPGGSLRLSCAASGFTFSSYSMNWVRQAPGKGLEWVAGINYNGGYKGYADSVKGRFTISRDNSKNTLYLQMNSLRAEDTAVYYCARGANWHDTHLDYWGQGTLVTVSS
VL: DIQMTQSPSSLSASVGDRVTITCRASQSIVRYLNWYQQKPGKAPKLVIYAATSLASGVPSRFSGSGSGTDFTLTISSLQPEDFATYYCQQSYELPLTFGGGTKVEIK
notes: Group III
B12: 374_G10 (antibody, V domains shown)
VH: EVQLLESGGGLVQPGGSLRLSCAASGFTFSSYSMNWVRQAPGKGLEWVSSINYNSGYTSYADSVKGRFTISRDNSKNTLYLQMNSLRAEDTAVYYCARGANWHDTHLDYWGQGTLVTVSS
VL: DIQMTQSPSSLSASVGDRVTITCRASQSIVSYLNWYQQKPGKAPKLVIYAVTSRASGVPSRFSGSGSGTDFTLTISSLQPEDFATYYCQQSYDSPLTFGGGTKVEIK
notes: Group III
B13: 374_G11 (antibody, V domains shown)
VH: EVQLLESGGGLVQPGGSLRLSCAASGFTFSDYSMNWVRQAPGKGLEWVSGINYNGGYTSYADSVKGRFTISRDNSKNTLYLQMNSLRAEDTAVYYCARGANWHDTALDYWGQGTLVTVSS
VL: DIQMTQSPSSLSASVGDRVTITCRASQSIISYVNWYQQKPGKAPKLVIYAATSLASGVPSRFSGSGSGTDFTLTISSLQPEDFATYYCQQSYDSPLTFGGGTKVEIK
notes: Group III
B14: 374_H01 (antibody, V domains shown)
VH: EVQLLESGGGLVQPGGSLRLSCAASGFTFDSYSMNWVRQAPGKGLEWVAGINYNGGYTSYADSVKGRFTISRDNSKNTLYLQMNSLRAEDTAVYYCARGANWHDTHLDYWGQGTLVTVSS
VL: DIQMTQSPSSLSASVGDRVTITCRASQSILSYLNWYQQKPGKAPKLVIYAATSLASGVPSRFSGSGSGTDFTLTISSLQPEDFATYYCQQSYENPLTFGGGTKVEIK
notes: Group III
B15: 374_H11 (antibody, V domains shown)
VH: EVQLLESGGGLVQPGGSLRLSCAASGFTFSSYSMNWVRQAPGKGLEWVSGINYNGGYTSYADSVKGRFTISRDNSKNTLYLQMNSLRAEDTAVYYCARGANWHDTALDYWGQGTLVTVSS
VL: DIQMTQSPSSLSASVGDRVTITCRASQSIISYVNWYQQKPGKAPKLVIYAATSLHSGVPSRFSGSGSGTDFTLTISSLQPEDFATYYCQQSYSNPLTFGGGTKVEIK
notes: Group III
B16: 375_A01 (antibody, V domains shown)
VH: EVQLLESGGGLVQPGGSLRLSCAASGFTFDSYSMNWVRQAPGKGLEWVAGINYNGGYTSYADSVKGRFTISRDNSKNTLYLQMNSLRAEDTAVYYCARGANWHDTALDYWGQGTLVTVSS
VL: DIQMTQSPSSLSASVGDRVTITCRASQSILSYLNWYQQKPGKAPKLVIYAATSRASGVPSRFSGSGSGTDFTLTISSLQPEDFATYYCQQSYNTPLTFGGGTKVEIK
notes: Group III
B17: 375_A07 (antibody, V domains shown)
VH: EVQLLESGGGLVQPGGSLRLSCAASGFTFDSYSMNWVRQAPGKGLEWVSSINYNSGYTGYADSVKGRFTISRDNSKNTLYLQMNSLRAEDTAVYYCARGANWHDTHLDYWGQGTLVTVSS
VL: DIQMTQSPSSLSASVGDRVTITCRASQSILTYLNWYQQKPGKAPKLLIYAATSRASGVPSRFSGSGSGTDFTLTISSLQPEDFATYYCQQSYDTPLTFGGGTKVEIK
notes: Group III
B18: 375_A08 (antibody, V domains shown)
VH: EVQLLESGGGLVQPGGSLRLSCAASGFTFSSYSMNWVRQAPGKGLEWVAGINYNGGYTGYADSVKGRFTISRDNSKNTLYLQMNSLRAEDTAVYYCARGANWHDTALDYWGQGTLVTVSS
VL: DIQMTQSPSSLSASVGDRVTITCRASQSIVTYLNWYQQKPGKAPKLLIYAATSRASGVPSRFSGSGSGTDFTLTISSLQPEDFATYYCQQSYESPLTFGGGTKVEIK
notes: Group III
B19: 375_A12 (antibody, V domains shown)
VH: EVQLLESGGGLVQPGGSLRLSCAASGFTFSSYSMNWVRQAPGKGLEWVSGINYNSGYKSYADSVKGRFTISRDNSKNTLYLQMNSLRAEDTAVYYCARGANWHDTALDYWGQGTLVTVSS
VL: DIQMTQSPSSLSASVGDRVTITCRASQSILSYLNWYQQKPGKAPKLVIYAVTSRASGVPSRFSGSGSGTDFTLTISSLQPEDFATYYCQQSYETPLTFGGGTKVEIK
notes: Group III

Experiments:
human ACVR2A = molecular target: T1, human ACVR2A (human, UniProt P27037 20-135, limits assumed); experiment: ELISA
T1 construct: coated antigen of the initial ELISA; also called activin receptor, type II A
T1 sequence (P27037 20-135 limits assumed): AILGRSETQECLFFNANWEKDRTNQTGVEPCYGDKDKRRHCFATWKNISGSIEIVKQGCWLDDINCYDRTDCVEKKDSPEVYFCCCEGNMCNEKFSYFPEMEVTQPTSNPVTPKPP
Summary of the method: (§1)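 ELISA measured binding of ACVR2A-specific monoclonal antibodies to human and mouse ACVR2A. Biotinylated goat anti-human kappa light chain served as positive control and human Fc as negative control.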

mouse ACVR2A = molecular target: T2, mouse ACVR2A (mouse, UniProt P27038 20-135, limits assumed); experiment: ELISA
T2 construct: coated antigen of the initial ELISA
T2 sequence (P27038 20-135 limits assumed): as the sequence (P27037 20-135 limits assumed) above, with K20R, V73I counted along it
Summary of the method: as §1

[1] = molecular target: T3, biotinylated goat anti-human kappa light chain; experiment: ELISA, positive control
T3 construct: positive control of the ELISA
Summary of the method: as §1
Note: test concentration or dose not given here.

Binder	optical density (human ACVR2A) [OD]	optical density (mouse ACVR2A) [OD]	optical density [1] [OD]
B1	3.78	3.67	3.12
B2	3.71	3.68	3.26
B3	3.56	3.64	3.27
B4	3.74	3.77	3.38
B5	3.61	3.28	3.29
B6	3.72	3.7	3.18
B7	3.47	3.54	3.21
B8	3.67	3.68	3.18
B9	3.79	3.64	3.22
B10	3.71	3.7	3.21
B11	3.66	3.6	3.26
B12	3.68	3.74	3.23
B13	3.65	3.6	3.25
B14	3.08	3.26	3.07
B15	3.27	3.29	3.15
B16	3.28	3.68	2.91
B17	3.58	3.64	3.11
B18	3.68	3.69	3.14
B19	3.66	3.35	3.14
